Data as given in PMC11853559, “α-Synuclein Iron-Responsive-Element RNA and Iron Regulatory Protein Affinity Is Specifically Reduced by Iron in Parkinson’s Disease”.

How the values were obtained:
Conditions in all cases: protein: commercial; hairpin (stem-loop), melted and reannealed
[1] = biological target: T1, Iron regulatory protein 1 (IRP1) (UniProt P21399 1-889); assay: fluorescence quenching (intrinsic); 10 °C, no Fe; 20 mM HEPES pH 7.4, 100 mM KCl, 1 mM MgCl2; 50 nM IRP1, 0-200 nM RNA; 15 min; 25 °C (5-30 °C series); Fe2+ 50 uM anaerobic where stated
T1 sequence: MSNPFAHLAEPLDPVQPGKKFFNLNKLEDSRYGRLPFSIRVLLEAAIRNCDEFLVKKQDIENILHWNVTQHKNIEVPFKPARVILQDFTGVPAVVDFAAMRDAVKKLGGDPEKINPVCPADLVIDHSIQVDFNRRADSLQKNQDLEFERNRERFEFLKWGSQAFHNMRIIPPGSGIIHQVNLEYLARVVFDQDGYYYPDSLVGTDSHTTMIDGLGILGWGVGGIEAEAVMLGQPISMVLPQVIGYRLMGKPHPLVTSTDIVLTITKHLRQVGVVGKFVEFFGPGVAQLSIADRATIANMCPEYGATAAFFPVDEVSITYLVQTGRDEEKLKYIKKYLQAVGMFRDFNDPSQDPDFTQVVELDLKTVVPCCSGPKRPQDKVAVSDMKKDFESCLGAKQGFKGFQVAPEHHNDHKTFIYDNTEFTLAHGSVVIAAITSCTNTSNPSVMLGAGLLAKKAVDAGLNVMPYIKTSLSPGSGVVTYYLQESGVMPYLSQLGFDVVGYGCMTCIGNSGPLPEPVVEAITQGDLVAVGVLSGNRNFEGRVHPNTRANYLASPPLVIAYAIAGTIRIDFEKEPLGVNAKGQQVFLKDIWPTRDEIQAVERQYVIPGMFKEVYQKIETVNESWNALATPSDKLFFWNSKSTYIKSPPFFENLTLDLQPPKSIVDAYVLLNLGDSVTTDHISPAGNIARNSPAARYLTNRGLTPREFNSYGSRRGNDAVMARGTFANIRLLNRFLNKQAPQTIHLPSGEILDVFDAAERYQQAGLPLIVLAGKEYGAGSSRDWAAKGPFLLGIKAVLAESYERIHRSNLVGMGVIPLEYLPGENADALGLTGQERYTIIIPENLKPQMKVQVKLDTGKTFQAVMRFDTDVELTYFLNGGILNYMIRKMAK

[2] = biological target: T1, Iron regulatory protein 1 (IRP1); assay: fluorescence quenching (intrinsic); 5 °C, no Fe; 20 mM HEPES pH 7.4, 100 mM KCl, 1 mM MgCl2; 50 nM IRP1, 0-200 nM RNA; 15 min; 25 °C (5-30 °C series); Fe2+ 50 uM anaerobic where stated
[3] = biological target: T1, Iron regulatory protein 1 (IRP1); assay: fluorescence quenching (intrinsic); 20 °C, no Fe; 20 mM HEPES pH 7.4, 100 mM KCl, 1 mM MgCl2; 50 nM IRP1, 0-200 nM RNA; 15 min; 25 °C (5-30 °C series); Fe2+ 50 uM anaerobic where stated
[4] = biological target: T1, Iron regulatory protein 1 (IRP1); assay: fluorescence quenching (intrinsic); 15 °C, no Fe; 20 mM HEPES pH 7.4, 100 mM KCl, 1 mM MgCl2; 50 nM IRP1, 0-200 nM RNA; 15 min; 25 °C (5-30 °C series); Fe2+ 50 uM anaerobic where stated
[5] = biological target: T1, Iron regulatory protein 1 (IRP1); assay: fluorescence quenching (intrinsic); 30 °C, no Fe; 20 mM HEPES pH 7.4, 100 mM KCl, 1 mM MgCl2; 50 nM IRP1, 0-200 nM RNA; 15 min; 25 °C (5-30 °C series); Fe2+ 50 uM anaerobic where stated
[6] = biological target: T1, Iron regulatory protein 1 (IRP1); assay: fluorescence quenching (intrinsic); 25 °C, no Fe; 20 mM HEPES pH 7.4, 100 mM KCl, 1 mM MgCl2; 50 nM IRP1, 0-200 nM RNA; 15 min; 25 °C (5-30 °C series); Fe2+ 50 uM anaerobic where stated
[7] = biological target: T1, Iron regulatory protein 1 (IRP1); assay: fluorescence quenching, Scatchard; 25 °C, no Fe (abstract gives 21.0); 20 mM HEPES pH 7.4, 100 mM KCl, 1 mM MgCl2; 50 nM IRP1, 0-200 nM RNA; 15 min; 25 °C (5-30 °C series); Fe2+ 50 uM anaerobic where stated

B1: alpha-Syn IRE RNA (SNCA 5'-UTR) (structured_RNA)
RNA: ACUGGGAGUGGCCAUUCGACGACAGUGUGGUGUAAAGGAAUUCAUUAGCC
Kd [1]: 21.9 ± 0.8 nM
Kd [2]: 13.5 ± 0.6 nM
Kd [3]: 38.9 ± 1.5 nM
Kd [4]: 27.8 ± 1.2 nM
Kd [5]: 63.8 ± 3.2 nM
Kd [6]: 47.6 ± 1.7 nM
Ka [7]: 20.8 10^6 M-1
